{"source": "IntAct's records for PubMed 7664803", "parents": {"B1": {"name": "Proto-oncogene tyrosine-protein kinase LCK (Mus musculus), P06240 (parent)", "chain": "MGCVCSSNPEDDWMENIDVCENCHYPIVPLDSKISLPIRNGSEVRDPLVTYEGSLPPASPLQDNLVIALHSYEPSHDGDLGFEKGEQLRILEQSGEWWKAQSLTTGQEGFIPFNFVAKANSLEPEPWFFKNLSRKDAERQLLAPGNTHGSFLIRESESTAGSFSLSVRDFDQNQGEVVKHYKIRNLDNGGFYISPRITFPGLHDLVRHYTNASDGLCTKLSRPCQTQKPQKPWWEDEWEVPRETLKLVERLGAGQFGEVWMGYYNGHTKVAVKSLKQGSMSPDAFLAEANLMKQLQHPRLVRLYAVVTQEPIYIITEYMENGSLVDFLKTPSGIKLNVNKLLDMAAQIAEGMAFIEEQNYIHRDLRAANILVSDTLSCKIADFGLARLIEDNEYTAREGAKFPIKWTAPEAINYGTFTIKSDVWSFGILLTEIVTHGRIPYPGMTNPEVIQNLERGYRMVRPDNCPEELYHLMMLCWKERPEDRPTFDYLRSVLDDFFTATEGQYQPQP"}}, "key": {"cd4_mouse Cd4, P06332": {"variants_of": "B1", "conditions": "with cd4_mouse Cd4, P06332"}, "cd8a_mouse Cd8a, P01731": {"variants_of": "B1", "conditions": "with cd8a_mouse Cd8a"}}, "data": [{"variant": "C20A", "values": [{"measurement": "effect of a mutation on the interaction", "setting": "cd4_mouse Cd4, P06332", "value": "decreasing interaction"}, {"measurement": "effect of a mutation on the interaction", "setting": "cd8a_mouse Cd8a, P01731", "value": "decreasing interaction"}]}, {"variant": "C23A", "values": [{"measurement": "effect of a mutation on the interaction", "setting": "cd4_mouse Cd4, P06332", "value": "decreasing interaction"}, {"measurement": "effect of a mutation on the interaction", "setting": "cd8a_mouse Cd8a, P01731", "value": "decreasing interaction"}]}]}
